Biological target: ssph2_salty sspH2 (UniProt P0CE12)
Sequence (P0CE12 whole entry): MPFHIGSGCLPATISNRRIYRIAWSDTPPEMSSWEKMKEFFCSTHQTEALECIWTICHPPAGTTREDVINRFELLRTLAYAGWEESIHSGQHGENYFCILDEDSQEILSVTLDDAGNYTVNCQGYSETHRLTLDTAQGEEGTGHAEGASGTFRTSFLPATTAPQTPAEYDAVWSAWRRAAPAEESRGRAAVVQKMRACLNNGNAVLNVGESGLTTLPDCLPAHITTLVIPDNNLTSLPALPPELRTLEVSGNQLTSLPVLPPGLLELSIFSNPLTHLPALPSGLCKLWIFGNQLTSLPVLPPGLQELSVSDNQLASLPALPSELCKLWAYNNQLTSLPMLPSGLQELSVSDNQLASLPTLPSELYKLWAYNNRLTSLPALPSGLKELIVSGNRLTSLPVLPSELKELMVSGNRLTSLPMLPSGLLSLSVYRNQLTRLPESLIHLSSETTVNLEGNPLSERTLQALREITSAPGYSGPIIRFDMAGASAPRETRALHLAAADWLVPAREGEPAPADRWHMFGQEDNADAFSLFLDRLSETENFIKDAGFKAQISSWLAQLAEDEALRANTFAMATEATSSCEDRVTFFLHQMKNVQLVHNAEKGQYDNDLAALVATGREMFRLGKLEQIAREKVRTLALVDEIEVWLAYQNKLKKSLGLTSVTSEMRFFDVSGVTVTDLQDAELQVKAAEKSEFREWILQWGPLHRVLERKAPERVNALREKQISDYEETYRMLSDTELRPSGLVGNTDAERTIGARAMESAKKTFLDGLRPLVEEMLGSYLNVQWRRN

Chain of Ubiquitin-conjugating enzyme E2 D3 (Homo sapiens), P61077 A96D (P61077 whole entry A96D): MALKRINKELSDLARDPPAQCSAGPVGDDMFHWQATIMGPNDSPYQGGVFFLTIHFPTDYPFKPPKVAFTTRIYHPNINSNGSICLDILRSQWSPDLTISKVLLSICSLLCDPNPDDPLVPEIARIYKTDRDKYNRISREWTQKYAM

Ubiquitin-conjugating enzyme E2 D3 (Homo sapiens), P61077 A96D
effect of a mutation on the interaction: decreasing interaction

— IntAct's records for PubMed 20133640
